2 substances from PMC8207546 can be followed below.

The nature of data set [1]: in vitro fusion of GFP-LC3 and LAMP2B-mCherry vesicles. The conditions noted are these: glycan gained; control: non-O-GlcNAcylated His-GRASP55.
Data set [2] in a line: LC3-LAMP2 co-IP with added recombinant GRASP55. The conditions noted are these: glycan gained; control: non-O-GlcNAcylated His-GRASP55 (coexpressed with GST).

As for GRASP55: O-GlcNAcylated His-GRASP55, the “other: autophagosome-lysosome fusion activity” value in data set [1] is given as “decreases”.

On to “GRASP55: O-GlcNAcylated His-GRASP55 (coexpressed with GST-OGT)”, for which the “other: bridging of LC3-LAMP2 interaction” value in data set [2] is “decreases”.
